Assay results: US10876130B2, “HPPD variants and methods of use” (Bayer CropScience LP, priority 2014, dated 2020)
Several values for one entry are separate records, joined by “and”; a condition that tells them apart may be missing. Equal values may be shown once.

Key:
HPPD enzymes [1] = details: for 125 μM HPP/500 μM HPP × 100 / 500 μM HPP, 5 μM TBT/500 μM HPP × 100: Table 3; for 125 μM HPP/500 μM HPP × 100: rate at limiting relative to high substrate; for 500 μM HPP, 5 μM TBT/500 μM HPP × 100 / 500 μM HPP + 5 μM TBT (as % of 500 μM HPP, dataset 1): rate with 5 μM tembotrione relative to rate without; for 500 μM HPP, dataset 1: enzymatic rate at high substrate (500 μM HPP), no inhibitor, measure of Vmax, E. coli extract; for 125 μM HPP (as % of 500 μM HPP, dataset 1): rate at limiting substrate relative to high substrate, measure of substrate affinity (Km); for 500 μM HPP + 5 μM TBT (as % of 500 μM HPP, dataset 1): resistance to tembotrione
Procedure: The in vitro kinetic assay couples the production of Homogentisic acid with the enzyme Homogentisate 1,2-dioxygenase (HGO). HGO converts homogentisic acid to maleoacetoacetate, which is easily quantified by UV absorption at 321 nm. The assay is carried out in real-time, and product can be quantified continuously in a 96-well spectrophotometer.
The kinetic assay was performed in two stages.
Experimentally, the first stage enzymatic assays were performed as follows. […] The cultures were incubated at 37 degrees C. When the OD reached 0.6-0.7, the temperature was decreased to 30 degrees C. and the cultures were incubated overnight. Cultures were sampled the next afternoon for the pyomelanin assay and the remaining culture was pelleted at 6500 rpm in an SA600 rotor, the supernatant was removed, and the pellets were frozen overnight at −20 degrees Celsius or until assay.
Just before assay, the pellets were resuspended in 1 ml of buffer (20 mM Hepes pH 7.0, 50 mM NaCl). Two ul of LYSONASE™ (Novagen) was added to each resuspended pellet, and then mixed. Two ml of buffer and 4 ul of LYSONASE™ were then added to the HGO pellet. The suspensions were incubated for 45 minutes at room temperature, and then frozen at −20 degrees for at least 1 hour. Then, the solutions were thawed at room temperature with occasional brief immersion in a 37 degree C. water bath and a little agitation. The cultures were spun down for 15 min at 14000 rpm in a Sorvall SA 600 rotor. The supernatants were carefully pipetted off the pellets (with care not to disturb the pellets), and transferred into 1 column of a 96 well plate, and 0.5 ml of buffer was added to each of the samples and pipetted up and down to mix. The HGO supernatant was collected and the reactions were performed in the following order. The HGO was added to the 500 μM HPP solution and the 500 μM solution+5 μM TBT. Immediately 100 ul of the 500 μM HPP solution was pipetted into even-numbered rows (5 reps) and 100 ul of the 500 μM HPP+5 μM TBT solution was pipetted into odd-numbered rows (5 reps). The reactions were divided between two 96-well plates to allow a sufficient number of samples to be analyzed (4 assays total in one 96-well plate, and 6 in another). Then, 100 ul of the enzyme solutions or buffer was pipetted first into a row of wells containing 500 μM HPP+5 μM TBT followed by gentle mixing by stirring with the pipette tips, and next into a row of wells containing 500 μM HPP followed by gentle mixing by stirring with the pipette tips. Product formation was measured by absorbance at 321 nm at 5 sec intervals. The reduced values (equivalent to the absorbance change over 50 sec, and calculated as OD/min) were analyzed. Five sets of data were collected. This was then repeated after addition of the HGO to the 125 μM HPP, using the same steps as above.
The enzymatic assay for each protein at 500 μM HPP is shown as milliOD units/minute, while the relative activity at 500 μM HPP+5 μM TBT, and also 125 μM HPP, are shown as a percentage of the activity at 500 μM HPP.

Soybean plants = assay: tolerance of soybean plants to mesotrione, spray test; type: in vivo
Procedure: Soybean plants expressing an HPPD inhibitor tolerant enzyme of the present invention, along with a gene conferring tolerance to glyphosate and a gene conferring tolerance to glufosinate, were tested for tolerance to mesotrione. A DeVries Tracker Sprayer was calibrated prior to each spraying. The chemical formulation used for mesotrione (MST) testing was Callisto® 4 SC formulation. Spray tests were conducted using 3× the field rate (equivalent to 9 fluid ounce per acre of the same herbicide formulation that containing 40% the active ingredient (AI), mesotrione), which equals 316 grams AI per hectare. Tolerance was evaluated one week after spraying. A tolerance rating of “0” was assigned to plants that their shoot apexes, newly emerged trifoliates and some axillary buds were completely bleached. A rating of “1” was assigned to plants having slight tolerance, i.e., the newest plant shoot tissues had some green and are not bleached completely. A rating of “2” was assigned to plants showing moderate tolerance, i.e., more than 50% of the leaf area of the top three trifoliates showing no chlorosis or bleaching damage. A rating of “3” was assigned to plants showing nearly perfect tolerance, i.e., less than 10% of the leaf area showing chlorosis or very slight bleaching.

HPPD enzymes [2] = assay: pyomelanin (brown color) colorimetric assay of HPPD enzymes overexpressed in E. coli, with tembotrione; type: cell-based; details: among Axmi309H mutants
Procedure: A specific, although non-limiting, type of assay that can be used to evaluate the HPPD sequences of the invention is a colorimetric assay. In this assay, a YT-broth-type culture medium with 1% agarose, 5 mM L-Tyrosine and 42 mM Succinate, which contains the selection agent for the vector pSE420 (Invitrogen, Karlsruhe, Germany) or a modified version of pSE420 (pSE420(RI)NX) is poured into deep well plates. E. coli culture in the exponentional growth phase which contains the vector pSE420-HPPDx (HPPDx means any gene coding for a putative HPPD enzyme/protein) is applied to each well.
Enzymes with improved tolerance to TBT were identified by this approach. The three-dimensional structure of Pseudomanas HPPD was studied to identify residues in the active site that were likely to be involved in substrate binding.
Briefly, overexpression of HPPD enzymes (in E. coli) on rich growth medium leads to the production of the compound pyomelanin. Pyomelanin is deep brown in color, therefore, inspection of HPPD enzymes grown on LB agar in a multi-well plate allows visual comparison of the enzymatic activity of HPPD enzymes. This experimental approach also allows varying concentrations of HPPD inhibitors (such as tembotrione) to be added to individual sample wells, which allows visual assessment of the tolerance of HPPD inhibitors by the randomized HPPD enzymes.

Molecule | 125 μM HPP/500 μM HPP × 100 (HPPD enzymes [1]) | 500 μM HPP, 5 μM TBT/500 μM HPP × 100 (HPPD enzymes [1]) | 500 μM HPP, dataset 1 (HPPD enzymes [1]) | 125 μM HPP (as % of 500 μM HPP, dataset 1) (HPPD enzymes [1]) | 500 μM HPP + 5 μM TBT (as % of 500 μM HPP, dataset 1) (HPPD enzymes [1]) | number of plants with tolerance rating 1 (Soybean plants; same spray test, 1 = slight tolerance, newest shoot tissues had some green) | number of plants with tolerance rating 2 (Soybean plants; same spray test, 2 = moderate tolerance, more than 50% of leaf area of top three trifoliates without chlorosis or bleaching) | number of plants with tolerance rating 3 (Soybean plants; same spray test, 3 = nearly perfect tolerance, less than 10% of leaf area showing chlorosis or very slight bleaching) | number of plants with tolerance rating 0 (Soybean plants; soybean expressing the clone, mesotrione (Callisto 4 SC) 316 grams AI per hectare (3× field rate), one week after spraying, 0 = completely bleached) | tolerance to tembotrione in the brown color assay (HPPD enzymes [2])
PfHPPDEvo40: reference Pseudomonas fluorescens HPPD variant, SEQ ID NO:3 in Table 2 (protein, variant HPPD) MADLYENPMGLMGFEFIEFASPTPGTLEPIFEIMGFTKVATHRSKNVHLYRQGEINLILNNEPNSIASYFAAEHGPSVCGMAFRVKDSQKAYNRALELGAQPIHIDTGPMELNLPAIKGIGGAPLYLIDRFGEGSSIYDIDFVYLEGVERNPVGAGLKVIDHLTHNVYRGRMVYWANFYEKLFNFREARYFDIKGEYTGLTSKAMSAPDGMIRIPLNEESSKGAGQIEEFLMQFNGEGIQHVAFLTDDLVKTWDALKKIGMRFMTAPPDTYYEMLEGRLPDHGEPVDQLQARGILLDGSSVEGDKRLLLQIFSETLMGPVFFEFIQRKGDDGFGPSNFKELFESIERDQVRRGVLTAD | 57 | 44 | 16 milliOD units/minute and 19 milliOD units/minute | 61% and 65% | 42% and 65% | – | – | – | – | –
PfHPPDEvo41: reference Pseudomonas fluorescens HPPD variant, SEQ ID NO:4 in Table 2 (protein, variant HPPD) MADLYENPMGLMGFEFIEFASPTPGTLEPIFEIMGFTKVATHRSKNVHLYRQGEINLILNNEPNSIASYFAAEHGPSVCGMAFRVKDSQKAYNRALELGAQPIHIDTGPMELNLPAIKGIGGAPLYLIDRFGEGSSIYDIDFVYLEGVERNPVGAGLKVIDHLTHNVYRGRMVYWANFYEKLFNFREARYFDIKGEYTGLTSKAMSAPDGMIRIPLNEESSKGAGQIEEFLMQFNGEGIQHVAFLTDDLVKTWDALKKIGMRFMTAPPDTYYEMLEGRLPDHGEPVDQLQARGILLDGSSVEGDKRLLLQIFSETLMGPVFFEFIQRKGDDGFGPWNFAQLFESIERDQVRRGVLTAD | 50 | 39 | 64 milliOD units/minute and 73 milliOD units/minute | 34% and 54% | 28% and 52% | – | – | – | – | –
Axmi309H-PWG: Axmi309H protein containing E335P, G336W, and A340G; SEQ ID NO:21 (protein, variant HPPD) MADLYENPMGLMGFEFIEFASPTPGTLEPIFEIMGFTKVATHRSKNVHLYRQGAINLILNNEPHSVASYFAAEHGPSVCGMAFRVKDSQKAYNRALELGAQPIHIETGPMELNLPAIKGIGGAPLYLIDRFGEGSSIYDIDFVFLEGVDRNPVGAGLKIIDHLTHNVYRGRMAYWANFYEKLFNFREIRYFDIKGEYTGLTSKAMTAPDGMIRIPLNEESSKGAGQIEEFLMQFNGEGIQHVAFLTDDLVKTWDQLKKIGMRFMTAPPDTYYEMLEGRLPNHGEPVDQLQSRGILLDGASDKEDKRLLLQIFSETLMGPVFFEFIQRKGDDGFGPWNFKGLFESIERDQVRRGVLATE | – | – | – | – | – | 18 | 23 | 12 | 5 | most tolerant to tembotrione
